The target of assay [1] is T1, human MCH receptor expressed from the open reading frame cDNA SEQ. ID. NO. 1 in 293-AEQ17 cells (human, UniProt Q99705 1-353). Kind of assay: cell-based or functional assay.
Assay [2] concerns the target T2, human MCH receptor (membranes from a stable CHO or HEK-293 cell line) (human, UniProt Q99705 1-353).
T2 construct: whole, on cells; also called cloned human MCH receptor (CHO clone)
Kind of assay: competition vs [125I]-human MCH (Phe13,Tyr19); human MCH receptor cell membranes (Example 3); unit of the concentration '1' not given.

The target of assay [3] is T1, human MCH receptor expressed from the …. As to the kind of experiment: cell-based or functional assay. The source holds these as a separate data set.
The target is the same in assay [4]. As to the kind of experiment: cell-based or functional assay. This is another data set of the same source.
Assay [5] concerns the target T2, human MCH receptor (membranes from a …). Kind of assay: competition vs [125I]-human MCH (Phe13,Tyr19); human MCH receptor cell membranes (Example 3).
Assay [6] addresses T1, human MCH receptor expressed from the …. Kind of assay: cell-based or functional assay. This is another data set of the same source.
In assay [7] the target is T2, human MCH receptor (membranes from a …). As to the kind of experiment: competition vs [125I]-human MCH (Phe13,Tyr19); human MCH receptor cell membranes (Example 3). This is another data set of the same source.
In assay [8] the target is T1, human MCH receptor expressed from the …. As to the kind of experiment: cell-based or functional assay. The source holds these as a separate data set.
Assay [9] has the same target. Kind of assay: cell-based or functional assay. This is another data set of the same source.
The target of assay [10] is T2, human MCH receptor (membranes from a …). Kind of assay: competition vs [125I]-human MCH (Phe13,Tyr19); human MCH receptor cell membranes (Example 3). This is another data set of the same source.
Assay [11] has the same target. The assay is described as above. This is another data set of the same source.
Assay [12] shares this target. The assay is described as above. The source holds these as a separate data set.
Assay [13] deals with T1, human MCH receptor expressed from the …. As to the kind of experiment: cell-based or functional assay. The source holds these as a separate data set.
For assay [14], the target named is T2, human MCH receptor (membranes from a …). Kind of assay: competition vs [125I]-human MCH (Phe13,Tyr19); human MCH receptor cell membranes (Example 3). The source holds these as a separate data set.
For assay [15] the target is unchanged. As to the kind of experiment: SPA competition vs [125I]-human MCH (Phe13,Tyr19); human MCH receptor cell membranes.
Assay [16] has the same target. As to the kind of experiment: competition vs [125I]-human MCH (Phe13,Tyr19); human MCH receptor cell membranes (Example 3); unit of the concentration '1' not given. This is another data set of the same source.
Assay [17] addresses human MCH receptor (membranes from a stable CHO or HEK-293 cell line) (human) (UniProt Q99705). Kind of assay: competition vs [125I]-human MCH (Phe13,Tyr19); human MCH receptor cell membranes (Example 3).

Where two headings read alike, the source gives them in different places. Bridges are numbered along the chain shown (N, C = ends). [ ]: non-standard residue; d: D form. Ava = NCCCCC(=O)O

In general, EC50 refers to the concentration at which the effect is half-maximal. A lower EC50 goes with a more potent agent. For orientation: IC50 means the concentration needed to halve the response being measured. The low end stands for greater potency, the high end for weaker potency.

T1 sequence (Q99705 whole entry): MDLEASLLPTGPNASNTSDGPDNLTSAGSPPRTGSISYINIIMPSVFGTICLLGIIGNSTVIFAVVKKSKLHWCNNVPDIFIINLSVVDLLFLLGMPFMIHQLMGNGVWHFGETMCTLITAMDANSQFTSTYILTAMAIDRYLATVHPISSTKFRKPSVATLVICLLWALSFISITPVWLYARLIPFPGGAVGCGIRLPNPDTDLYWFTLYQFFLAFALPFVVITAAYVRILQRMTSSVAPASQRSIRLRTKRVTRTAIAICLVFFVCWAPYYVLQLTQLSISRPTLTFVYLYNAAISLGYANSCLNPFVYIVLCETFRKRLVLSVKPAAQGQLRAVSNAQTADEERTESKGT
T2 sequence (Q99705 whole entry): as above
Sequence of human MCH receptor (membranes from a stable CHO or HEK-293 cell line) (human) (Q99705 whole entry): as above

B1: MCH analog SEQ. ID. NO. 26 (N-Me-Leu^9) (peptide)
peptide: RCMXGRVYRPC
modifications: N-methyl-leucine at position 9; N-terminal acetyl, C-terminal amide, Cys-Cys disulfide as in SEQ. ID. NO. 7
notes: ID; NO; 7 peptide; MCH position numbering
Consider B1, for which, in assay [1], the Activation % is 3% and the “EC50” value is over 10000 nM. Besides, the “% @ 1 (in the IC50 column)” value in assay [2] turned out to be 10%.

B2: truncated MCH analog SEQ. ID. NO. 7: Ac-Arg-Cys-Met-Leu-Gly-Arg-Val-Tyr-Arg-Pro-Cys-amide (peptide)
peptide: Ac-RCMLGRVYRPC-NH2
modifications: disulfide 2-11 (inferred)
notes: Corresponds to MCH positions 6-16; also called ID; NO; 7 MCH analog
As for B2, the Activation % in [3], in assay [4], in [8], in assay [9], in assay [1] and in [13] was 99% each time. Moreover, the “EC50” value in [3] turned out to be 20 nM; in [4] it was 20 nM; in [6] it was 18 nM; in assay [8] it was 20 nM; in assay [9], 20 nM; in assay [1] it was 20 nM. Further, the “EC50” value in assay [13] was 20 nM. In addition, the IC50 in assay [5] amounted to 1.4 nM; in assay [7] it was 0.5 nM; in assay [10], 1.4 nM; in [11] it was 1.4 nM; in assay [12], 0.5 nM; in assay [14], 1.4 nM. Further, the IC50 in assay [15] was 0.12 nM. Besides, in assay [6], the “% Activation at 10 µM” value came to 123%.

B3: MCH analog SEQ. ID. NO. 58 (position 10: D-Glu) (peptide)
peptide: RCMLXRVYRPC
modifications: D-Glu at position 10; N-terminal acetyl, C-terminal amide, Cys-Cys disulfide as in SEQ. ID. NO. 7
notes: as for B1
Consider B3, for which the “EC50” value in assay [4] is over 10000 nM. Also, the “% @ 1 (in the IC50 column)” value in assay [16] is 40%.

B4: MCH analog SEQ. ID. NO. 76 (Ava^9,10,Ava^14,15) (peptide)
peptide: Ac-RCM[Ava][Ava]RVY[Ava][Ava]C-NH2
modifications: disulfide 2-11; not fully specified
B4: the IC50 in [17] was found to be 50 nM. For the same molecule, in assay [13], the Activation % was 3% and the “EC50” value was over 10000 nM.

Values taken from patent US20030105278A1 (MERK, published 2003).
